The values that follow come from patent US20160222458A1 (AGENCY FOR SCIENCE TECHNOLOGY AND RESEARCH, published 2016).

The target in the assay is T1, Aurora kinase A (AURKA) (UniProt O14965 1-403).
T1 construct: also called AURKA-A; STK6
T1 sequence (looked up): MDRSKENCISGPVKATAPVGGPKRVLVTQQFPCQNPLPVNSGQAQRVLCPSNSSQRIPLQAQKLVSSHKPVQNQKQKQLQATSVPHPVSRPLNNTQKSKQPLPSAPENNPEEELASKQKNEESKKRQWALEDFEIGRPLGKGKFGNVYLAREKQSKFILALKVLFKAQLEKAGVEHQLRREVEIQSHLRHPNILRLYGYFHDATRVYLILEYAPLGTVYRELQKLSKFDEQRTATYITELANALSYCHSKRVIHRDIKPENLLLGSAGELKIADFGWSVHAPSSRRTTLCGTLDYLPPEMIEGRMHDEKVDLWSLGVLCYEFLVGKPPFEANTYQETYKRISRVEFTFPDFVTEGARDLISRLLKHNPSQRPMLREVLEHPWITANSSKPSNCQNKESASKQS
Description: co-immunoprecipitation from MDA-MB-436 lysate with anti-PRR11 antibody on CNBr sepharose, Western blot. From the text:
Pelleted cells were lysed using lysis buffer (commercial Bio-Rad) and estimated proteins (Bio-Rad protein assay) and loaded equal amount of protein and separated by SDS-PAGE [28-30]. After transfer, the membranes were probed with commercial rabbit polyclonal antibodies of Actin, C6orf173, AURKA, MELK and PRR11 (Cell sciences, Sigma Aldrich). Commercial mouse monoclonal antibody available for BRRN1 was obtained from Cell Signalling. Commercial rabbit polyclonal antibody of E2F1 obtained from Thermo Scientific. B-Actin (cell signalling) was used as internal control to relatively compare the expression levels of 6-TAGs genes. Secondary antibodies (anti-rabbit and anti-mouse IgG horseradish peroxidase-conjugated) were purchased from GE Healthcare Bio-Sciences AB. Proteins were visualized using an enhanced chemiluminescence (ECL) reagent kit (GE Healthcare Bio-Sciences AB). Densitometry analysis of Western Blot images was done using ImageJ open source software.
For the immunoprecipiation 5 ug of the antibodies (rabbit anti-PRR11 and mouse anti-BRRN1) were coupled to the CN-Br sepharose 4 Fast Flow according manufacturer protocol (GE Healthcare Bio-Sciences AB) and such supports were used to capture the corresponding proteins from the NP40 cell lysates (usually 1×10^7 MDA-MB-436 cells were used for one probe). […]
In general terms: Immunoblotting shows a protein as a band on a membrane.

B1: Proline rich 11 (PRR11/FLJ11029) (other, UniProt Q96HE9 1-360, looked up)
chain: MPKFKQRRRKLKAKAERLFKKKEASHFQSKLITPPPPPPSPERVGISSIDISQSRSWLTSSWNFNFPNIRDAIKLWTNRVWSIYSWCQNCITQSLEVLKDTIFPSRICHRELYSVKQQFCILESKLCKLQEALKTISESSSCPSCGQTCHMSGKLTNVPACVLITPGDSKAVLPPTLPQPASHFPPPPPPPPLPPPPPPLAPVLLRKPSLAKALQAGPLKKDGPMQITVKDLLTVKLKKTQSLDEKRKLIPSPKARNPLVTVSDLQHVTLKPNSKVLSTRVTNVLITPGKSQMDLRKLLRKVDVERSPGGTPLTNKENMETGTGLTPVMTQALRRKFQLAHPRSPTPTLPLSTSSFDEQN
notes: also called endogenous PRR11
Regarding B1, the binding result was “no binding”.
